Biological target: WASP GBD (GTPase binding domain, residues 242-310) (UniProt P42768)
Assay: NMR titration

Sequence of WASP GBD (GTPase binding domain, residues 242-310) (P42768 242-310): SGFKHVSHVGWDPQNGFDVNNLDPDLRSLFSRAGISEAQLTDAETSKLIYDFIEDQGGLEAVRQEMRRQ
Sequence of EspFU R5 (five-repeat fragment) (P0DJ88 80-314): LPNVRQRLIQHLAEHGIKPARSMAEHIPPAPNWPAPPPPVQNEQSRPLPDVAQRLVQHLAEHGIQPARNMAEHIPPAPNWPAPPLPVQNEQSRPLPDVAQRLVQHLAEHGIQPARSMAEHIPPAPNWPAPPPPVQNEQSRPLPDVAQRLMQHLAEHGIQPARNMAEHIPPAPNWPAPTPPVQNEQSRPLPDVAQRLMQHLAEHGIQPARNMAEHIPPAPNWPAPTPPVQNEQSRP

EspFU R5 (five-repeat fragment) (from UniProt P0DJ88 80-314) (domain or fragment)
stoichiometry N: 0.2 EspFU:GBD

Reference: article PMC2719906
